Our source for the Kd, koff and kon values is article PMC11041648.

The target in assay [1] is PGT145 IgG (human). Kind of assay: BLI; Octet Red; PGT145 IgG (8 µg/mL) loaded on anti-human IgG Fc capture biosensors; twofold dilution series of SOSIP trimer as analyte; 3 min association, 3 min dissociation; PBS pH 7.4, 0.1% BSA, 0.005% Tween 20, 0.02% NaN3; 1:1 binding model; averages of at least two independent experiments.
For assay [2], the target named is PGT145 IgG (human). The description is as above. The source holds these as a separate data set.

By Kd is commonly meant the free concentration of one partner at which half of the binding sites on the other are occupied at equilibrium, for simple one-to-one binding. A lower Kd goes with higher affinity. As a reminder, the koff is the rate constant with which the complex falls apart. As a reminder, the kon is a measure of how fast the partners come together. A high value points to faster complex formation.

Like-named read-outs stand apart in the source and are kept apart here.

Sequence of PGT145 IgG (human) (heavy, as listed by the source, chain 1 of 2): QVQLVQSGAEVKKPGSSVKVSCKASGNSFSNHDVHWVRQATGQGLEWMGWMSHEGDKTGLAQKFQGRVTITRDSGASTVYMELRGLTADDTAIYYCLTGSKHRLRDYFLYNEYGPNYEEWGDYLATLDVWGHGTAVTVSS
Sequence of PGT145 IgG (human) (light, as listed by the source, chain 2 of 2): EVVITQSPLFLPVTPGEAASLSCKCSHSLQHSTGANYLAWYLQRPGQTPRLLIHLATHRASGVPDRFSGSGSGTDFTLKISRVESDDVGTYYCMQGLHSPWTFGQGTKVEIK

With CNE8 SOSIP.664 Env trimer (complex), in the assay with PGT145 IgG (human) [1], the Kd came to 50.8 nM, the koff stood at 0.00419 s⁻¹ and the kon was found to be 83400 M⁻¹ s⁻¹.
BJOX2000 SOSIP.664 Env trimer (complex): in the assay with PGT145 IgG (human) [1], the Kd was 27.7 nM, the koff turned out to be 0.00152 s⁻¹ and the kon was 66700 M⁻¹ s⁻¹.
On to BG505 SOSIP.664 Env trimer (complex), for which, in the assay with PGT145 IgG (human) [1], the Kd worked out at 16 nM, the koff was 0.00177 s⁻¹ and the kon turned out to be 120000 M⁻¹ s⁻¹. In the assay with PGT145 IgG (human) [2], this substance gave a Kd of 15.6 nM, a koff of 0.00185 s⁻¹ and a kon of 129000 M⁻¹ s⁻¹.
